Assay results reported in patent US20040120946A1.
Blank lines part the entries; values can stand above or below the binder they belong to. Where no end group is shown, it is not given here.

How the values were obtained:
[1] = biological target: antibody against β1-adrenoceptor in DCM patient serum A (human); assay: batch adsorption: 50 uL adsorbent with 300 uL DCM patient serum A, 37 C, 2 h; antibody left in supernatant read by ELISA on plate-coated β1AR2nd peptide
[2] = biological target: antibody against β1-adrenoceptor in DCM patient serum D (human); assay: batch adsorption with DCM patient serum D, 37 C, 2 h; antibody left in supernatant read by ELISA on plate-coated β1AR2nd peptide
[3] = biological target: antibody against β1-adrenoceptor in DCM patient serum B (human); assay: batch adsorption with DCM patient serum B, 37 C, 2 h; antibody left in supernatant read by ELISA on plate-coated β1AR2nd peptide
[4] = biological target: antibody against M2 muscarinic receptor in DCM patient serum C (human); assay: batch adsorption with DCM patient serum C, 37 C, 2 h; antibody left in supernatant read by ELISA on plate-coated M2R peptide

Adsorptive capacity [1]: 35%
B1: peptide (SEQ ID NO:4) immobilized on epoxy-activated GCL2000m (GCL2000m-SEQ ID NO:4) (peptide)
peptide: RAESDEARRCYNDPKCCDFVTNR

Adsorptive capacity [2]: 80%
B2: peptides (SEQ ID NOS:11,12) co-immobilized on epoxy-activated Kac (Kac-SEQ ID NOS:11,12) (protein)
peptide 1: HWWRAESDEARRCYNDPKCCDFVTNRAC
peptide 2: VRTVEDGECYIQFFSNAAVTFGTAIC
modifications: cysteine pairing not given here; also: two separate peptides co-immobilized on epoxy-activated Kac

Adsorptive capacity [3]: 70%
B3: peptide (SEQ ID NO:9) immobilized on epoxy-activated Kac (Kac-SEQ ID NO:9) (peptide)
peptide: HWWRAESDEARRCYNDPKCCDFVTNRGAC
modifications: cysteine pairing not given here; also: immobilized on epoxy-activated cellulose gel Kac

Adsorptive capacity [1]: 15%
B4: second loop of β1-adrenoceptor peptide (β1AR2nd) immobilized on CNBr-activated Sepharose 4B (Sepharose 4B-β1AR2nd) (peptide)
peptide: HWWRAESDEARRCYNDPKCCDFVTNR
modifications: cysteine pairing not given here; also: immobilized on CNBr-activated Sepharose 4B

Adsorptive capacity [4]: 60%
B5: peptide (SEQ ID NO:10) immobilized on Eupergit C 250 L (Eu-SEQ ID NO:10) (peptide)
peptide: VRTVEDGECYIQFFSNAAVTFGTAIPAKK
modifications: also: immobilized on Eupergit C 250 L
